Where a chain is given by its changes, count along the chain named.
B1: AFP158/HLA-A*02:01-specific scFv phage clone #48 (scFv, V domains shown)
VH: EVQLVESGGGLVQPGRSLRLSCAASGFTFDDYAMHWVRQAPGKGLEWVSGISWNSGRIGYADSVKGRFTISRDNAKNSLYLQMNSLRAEDTAVYYCARADDYGAPYYYYGMDVWGQGTTVTVSS
VL: QSVLTQPPSVSGAPGQRVTISCTGSSSNIGAGYDVHWYQQLPGTAPKLLIYGNSNRPSGVPDRFSGSKSGTSASLAITGLQAEDEADYYCQSYDSSLSGSVFGTGTKVTVLG
B2: #50 (scFv, V domains shown, not shown: large carriers; small tags and cut ends)
VH: QVQLQESGPGLVKPSGTLSLTCAVSGGSISSSNWWSWVRQPPGKGLEWIGEIYHSGSTNYNPSLKSRVTISVDKSKNQFSLKLSSVTAADTAVYYCATGYGGYFDYWGQGTLVTVSS
VL: QSVLTQPPSVSVAPGKTARITCGGNNIGSKSVHWYQQKPGQAPVLVIYYDSDRPSGIPERFSGSNSGNTATLTISRVEAGDEADYYCQVWDSSSDHVVFGGGTKLTVL
notes: also called Clone 50; AFP158/HLA-A*02:01-specific scFv phage clone #50; copies: 1 + 1
B3: full-length AFP158 mouse chimeric IgG1 antibody 1402-61 (antibody, V domains shown)
VH: EVQLVQSGAEVKKPGESLTISCKASGYSFPNYWITWVRQMSGGGLEWMGRIDPGDSYTTYNPSFQGHVTISIDKSTNTAYLHWNSLKASDTAMYYCARYYVSLVDIWGQGTLVTVSS
VL: QSVLTQPASVSGSPGQSITISCTGTSSDVGGYNYVSWYQQHPGKAPKLMIYDVNNRPSEVSNRFSGSKSGNTASLTISGLQAEDEADYYCSSYTTGSRAVFGGGTKLTVLG
notes: bivalent IgG
B4: full-length AFP158 mouse chimeric IgG1 antibody 1402-79 (antibody, V domains shown)
VH: QMQLVQSGGGLVQPGRSLRLSCAASGFTFDDYAMHWVRQAPGKGLEWVSGISWNSGSIGYADSVKGRFTISRDNAKNSLYLQMNSLRAEDTALYYCAKDIHSGSYYGLLYYAMDVWGQGTTVTVSS
VL: QSVLTQPPSVSGAPGQRVTISCTGSSSNIGAGYDVHWYQQLPGTAPKLLIFGNSNRPSGVPDRFSGFKSGTSASLAITGLQAEDEADYFCQSYDSSLSGSGVFGTGTKVTVLG
notes: bivalent IgG
B5: #44 (scFv, V domains shown, not shown: large carriers; small tags and cut ends)
VH: QVQLVQSGAEVKKPGSSVKVSCKASGGTFSSYAISWVRQAPGQGLEWMGGIIPIFGTANYAQKFQGRVTITADESTSTAYMELSSLRSEDTAVYYCAREIRGYYYYYGMDVWGQGTTVTVSS
VL: SYELTQPPSVSVAPGKTARITCGGDNIGTKSVTWYQQRPGQAPMMVIYYDTVRPSGIPERLSGSNSGNTATLTITRVEAGDEADYYCQVWDSSSDHPVFGGGTKLTVL
notes: also called Clone 44; AFP158/HLA-A*02:01-specific scFv phage clone #44; copies: 1 + 1
B6: AFP158/HLA-A*02:01-specific scFv phage clone #33 (scFv, V domains shown)
VH: QVQLQQSGPGLVKPSQTLSLTCAISGDSVSSNSAAWNWIRQSPSRGLEWLGRTYYRSKWYNDYAVSVKSRITINPDTSKNQFSLQLNSVTPEDTAVYYCARGSYYSGRYDAWGQGTLVTVSS
VL: NFMLTQPHSVSESPGKTVTISCTRSSGSIASNYVQWYQQRPGSSPTTVIYEDNQRPSGVPDRFSGSIDSSSNSASLTISGLKTEDEADYYCQSYDSSTVVFGGGTKLTVLG
B7: full-length AFP158 mouse chimeric IgG1 antibody 1402-76 (antibody, V domains shown)
VH: EVQLVESGGGLVKPGGSLRLSCAASGFTFSNAWMSWVRQAPGKGLEWVGFIRSKAYGGTTEYAASVKGRFTISRDDSKSIAYLQMNNLKTEDTAVYYCARDGLYSSSWYDSDYWGQGTLVTVSS
VL: QSVVTQPPSVSAAPGQKVTISCSGSSSNIGNNYVSWYQQLPGTAPKLLIYDNNKRPSGIPDRFSGSKSGTSATLGITGLQTGDEADYYCGTWDGSLYTMLFGGGTKLTVLG
notes: bivalent IgG
B8: AFP158/HLA-A*02:01-specific scFv phage clone #17 (scFv, V domains shown)
VH: EVQLVQSGAEVKKPGASVKVSCKASGYTFTSYGISWVRQAPGQGLEWMGWISAYNGNTNYAQKLQGRVTMTTDTSTSTAYMELRSLRSDDTAVYYCARYQDWWYLGQFDQWGQGTLVTVSS
VL: QSALTQPASVSGSPGQSITISCTATGSDVGVYYYVSWYQQHPGKAPKVMIYDVGNRPPGVSNRFSGSKSGNTASLTISGLQAEDEADYYCASYTNRNSLGYVFGTGTKVTVLG
B9: AFP158/HLA-A*02:01-specific scFv phage clone #17-13 (scFv, V domains shown)
VH: B8 VH with Y99F
VL: B8 VL with G54D
notes: also called AM1402-17-13

Tests used:
[1] = target: T1, mouse AFP158 peptide/HLA-A*02:01 complex on T2 cells (human; mouse); test: FACS, phage clone on peptide-loaded T2 cells
T1 construct: also called mouse AFP158-loaded T2 cells

[2] = target: T2, hTERT540 peptide (…)/HLA-A*02:01 on T2 cells (human); test: FACS of scFv phage on hTERT peptide-loaded T2 cells
T2 construct: control peptide-MHC; also called β2M/hTERT peptide-loaded T2 cells
Method: (§1) Specific and unique clones were further tested for their binding to HLA-A2/peptide complexes on live cell surfaces by flow cytometry (FACS analysis) using AFP158-loaded live T2 cells. T2 cells loaded with different peptides and β2M were first stained with purified scFv phage clones, followed by staining with a mouse anti-M13 mAb, and finally the R-PE conjugated horse anti-mouse IgG from Vector Labs. Each step of the staining was done between 30-60 minutes on ice and the cells were washed twice between staining.

[3] = target: T3, HLA-A*02:01 on T2 cells with β2M but without peptide loaded (human); test: FACS of scFv phage on β2M-loaded T2 cells without peptide
T3 construct: control without added peptide; also called β2M-loaded T2 cells
Method: as §1

[4] = target: T4, AFP158/HLA-A*02:01 complex presented on cells (human); test: FACS of scFv phage on AFP158 peptide-loaded T2 cells, anti-M13 mAb and R-PE anti-mouse IgG
T4 construct: the cell line used is named under assay in each row; also called AFP158-loaded T2 cells; human AFP158-loaded T2 cells
Method: as §1

[5] = target: T5, recombinant AFP protein (UniProt P02771 19-609, limits assumed); test: ELISA on AFP protein coated at 2 µg/mL
T5 construct: also called AFP recombinant protein
T5 sequence (looked up): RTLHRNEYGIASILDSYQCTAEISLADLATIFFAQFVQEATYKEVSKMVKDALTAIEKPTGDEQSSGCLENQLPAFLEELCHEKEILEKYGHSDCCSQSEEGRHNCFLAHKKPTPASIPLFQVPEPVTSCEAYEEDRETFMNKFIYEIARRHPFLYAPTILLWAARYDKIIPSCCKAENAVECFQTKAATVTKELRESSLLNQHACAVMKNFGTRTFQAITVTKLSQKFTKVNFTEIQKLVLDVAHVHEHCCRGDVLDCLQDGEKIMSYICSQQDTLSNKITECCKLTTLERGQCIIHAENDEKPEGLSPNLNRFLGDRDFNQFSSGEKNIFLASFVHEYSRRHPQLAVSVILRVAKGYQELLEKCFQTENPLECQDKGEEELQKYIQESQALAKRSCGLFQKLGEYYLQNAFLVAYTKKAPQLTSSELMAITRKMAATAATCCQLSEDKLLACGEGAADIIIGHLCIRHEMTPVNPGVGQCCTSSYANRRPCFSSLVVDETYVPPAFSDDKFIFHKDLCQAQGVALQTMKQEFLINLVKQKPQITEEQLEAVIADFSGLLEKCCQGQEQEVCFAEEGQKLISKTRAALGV
Method: Antibodies were tested at 3× serial dilution, starting from 100 ng/mL, for a total of 8 concentrations. Biotinlyated AFP158/A*02:01 MHC was coated onto streptavidin plates at 2 μg/mL, AFP protein was coated at 2 μg/mL and AFP158 peptide was coated at 40 ng/mL.

[6] = target: T1, mouse AFP158 peptide/HLA-A*02:01 …; test: FACS of scFv phage on mouse AFP158 peptide-loaded T2 cells
[7] = target: T4, AFP158/HLA-A*02:01 complex presented on …; test: FACS, phage clone on peptide-loaded T2 cells
[8] = target: T4, AFP158/HLA-A*02:01 complex presented on …; test: FACS, scFv phage clone on peptide-loaded T2 cells
Method: (§2) Antibody phage clones were then tested for binding to these peptide-loaded T2 cells by FACS analysis.

[9] = target: T6, hAFP158 A1 peptide (…)/HLA-A*02:01 on T2 cells (human); test: FACS, scFv phage clone on peptide-loaded T2 cells
T6 construct: also called Ala Position 1
Method: as §2

[10] = target: T7, hAFP158 A3 peptide (…)/HLA-A*02:01 on T2 cells (human); test: FACS, scFv phage clone on peptide-loaded T2 cells
T7 construct: also called Ala Position 3
Method: as §2

[11] = target: T8, hAFP158 A4 peptide (…)/HLA-A*02:01 on T2 cells (human); test: FACS, scFv phage clone on peptide-loaded T2 cells
T8 construct: also called Ala Position 4
Method: as §2

[12] = target: T9, hAFP158 A5 peptide (…)/HLA-A*02:01 on T2 cells (human); test: FACS, scFv phage clone on peptide-loaded T2 cells
T9 construct: also called Ala Position 5
Method: as §2

[13] = target: T10, hAFP158 A6 peptide (…)/HLA-A*02:01 on T2 cells (human); test: FACS, scFv phage clone on peptide-loaded T2 cells
T10 construct: also called Ala Position 6
Method: as §2

[14] = target: T11, hAFP158 A7 peptide (…)/HLA-A*02:01 on T2 cells (human); test: FACS, scFv phage clone on peptide-loaded T2 cells
T11 construct: also called Ala Position 7
Method: as §2

[15] = target: T12, hAFP158 A8 peptide (…)/HLA-A*02:01 on T2 cells (human); test: FACS, scFv phage clone on peptide-loaded T2 cells
T12 construct: also called Ala Position 8
Method: as §2

| Binder | binding result [1] | binding result [2] | binding result [3] | binding result [4] | binding result [5] | also measured |
| --- | --- | --- | --- | --- | --- | --- |
| B1 | binds | no binding | no binding | binds |  |  |
| B2 |  | no binding | no binding | binds |  |  |
| B3 |  |  |  |  | no binding (tested: 100 ng/mL) |  |
| B4 |  |  |  |  | no binding (tested: 100 ng/mL) |  |
| B5 |  | no binding | no binding | binds |  | binding result [6]: no binding |
| B6 | binds | no binding | no binding | binds |  |  |
| B7 |  |  |  |  | no binding (tested: 100 ng/mL) |  |
| B8 | binds |  |  |  |  | binding result [7]: binds |
| B9 |  |  |  |  |  | FACS binding signal (name and unit not given) [8]: 83300; FACS binding signal (name and unit not given) [9]: 55600; FACS binding signal (name and unit not given) [10]: 2910; FACS binding signal (name and unit not given) [11]: 50800; FACS binding signal (name and unit not given) [12]: 1500; FACS binding signal (name and unit not given) [13]: 28800; FACS binding signal (name and unit not given) [14]: 572; FACS binding signal (name and unit not given) [15]: 43200 |

Reference: patent US20180208658A1 (EUREKA THERAPEUTICS, published 2018)
